These are literature values, as cited in article PMC8330535.

In the series the target is ARNT PAS-B (Homo sapiens) (UniProt P27540). The conditions noted are these: cited from earlier work.
ARNT PAS-B (Homo sapiens), sequence (P27540 356-470): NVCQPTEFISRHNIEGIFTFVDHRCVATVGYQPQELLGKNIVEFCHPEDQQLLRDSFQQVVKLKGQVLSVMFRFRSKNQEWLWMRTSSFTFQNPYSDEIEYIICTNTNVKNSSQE

HIF-1α PAS-B, sequence (Q16665 238-349): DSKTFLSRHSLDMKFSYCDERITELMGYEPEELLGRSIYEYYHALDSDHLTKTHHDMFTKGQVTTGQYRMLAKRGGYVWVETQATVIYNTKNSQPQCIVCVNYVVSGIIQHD

For HIF-1α PAS-B (from UniProt Q16665), the Kd is 125 nM.
